The supplement of paper PMC5998384

Key:
HeLa Kyoto [1] = assay: solubility change mitosis vs G1/S (difference of NP-40 vs SDS log2 ratios) (log2 ratio difference); higher = more soluble in mitosis
HeLa Kyoto [2] = assay: thermal stability score vs G1/S (z-score of summed log2 fold changes over temperatures); higher = more thermally stable than in G1/S
HeLa Kyoto [3] = assay: solubility in G1/S (NP-40 vs SDS abundance) (log2 ratio); higher = more soluble; conditions: cell cycle stage: G1/S
[4] = cell cycle stage: early G1 (4.5 h after nocodazole release)
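Throughout, for solubility change mitosis vs G1/S (difference of NP-40 vs SDS log2 ratios): synchronized HeLa Kyoto cells (double thymidine block for G1/S, nocodazole release for mitosis), protein amounts in NP-40 versus SDS lysates quantified by mass spectrometry, three biological replicates.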
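Throughout, for solubility in G1/S (NP-40 vs SDS abundance): HeLa Kyoto cells arrested at G1/S by double thymidine block, proteins quantified by TMT10plex mass spectrometry in mild NP-40 versus SDS extracts, three biological replicates.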
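Throughout, for thermal stability score vs G1/S (z-score of summed log2 fold changes over temperatures): synchronized HeLa Kyoto cells, proteins quantified by TMT10plex mass spectrometry, three biological replicates, mitosis taken 0.5 h after nocodazole release, G1/S directly after double thymidine block.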

In the case of “MAARAVLDEFTAPAEKAELLEQSRGRIEGLFGVSLAVLGALGAEEPLPARIWLQLCGAQEAVHSAKEYIKGICEPELEERECYPKDMHCIFVGAESLFLKSLIQDTCADLCILDIGLLGIRGSAEAVVMARSHIQQFVKLFENKENLPSSQKESEVKREFKQFVEAHADNYTMDLLILPTSLKKELLTLTQGEENLFETGDDEVIEMRDSQQTEFTQNAATGLNISRDETVLQEEARNKAGTPVSELTKQMDTVLSSSPDVLFDPINGLTPDEEALSNERICQKRRFSDSEERHTKKQFSLENVQEGEILHDAKTLAGNVIADLSDSSADSENLSPDIKETTEEMEYNILVNFFKTMGYSQEIVEKVIKVYGPSTEPLLLLEEIEKENKRFQEDREFSAGTVYPETNKTKNKGVYSSTNELTTDSTPKKTQAHTQQNMVEKFSQLPFKVEAKPCTSNCRINTFRTVPIEQKHEVWGSNQNYICNTDPETDGLSPSVASPSPKEVNFVSRGASSHQPRVPLFPENGLHQQPEPLLPNNMKSACEKRLGCCSSPHSKPNCSTLSPPMPLPQLLPSVTDARSAGPSDHIDSSVTGVQRFRDTLKIPYKLELKNEPGRTDLKHIVIDGSNVAITHGLKKFFSCRGIAIAVEYFWKLGNRNITVFVPQWRTRRDPNVTEQHFLTQLQELGILSLTPARMVFGERIASHDDRFLLHLADKTGGIIVTNDNFREFVNESVSWREIITKRLLQYTFVGDIFMVPDDPLGRSGPRLEEFLQKEVCLRDMQPLLSALPNVGMFDPSFRVPGTQAASTSHQPPTRIQGAPSSHWLPQQPHFPLLPALPSLQQNLPMPAQRSSAETNELREALLKIFPDSEQRLKIDQILVAHPYMKDLNALSAMVLD [N4BP1]”, the “solubility change mitosis (log2)” value (HeLa Kyoto [1]) was -0.0226, the thermal stability score (HeLa Kyoto [2]; [4]) was 1.68 and the thermal stability score (HeLa Kyoto [2]; cell cycle stage: mitosis) was 2.82. For the same substance, the “solubility in G1/S (log2)” value (HeLa Kyoto [3]) was 0.0767.
With “MPLELTQSRVQKIWVPVDHRPSLPRSCGPKLTNSPTVIVMVGLPARGKTYISKKLTRYLNWIGVPTKVFNVGEYRREAVKQYSSYNFFRPDNEEAMKVRKQCALAALRDVKSYLAKEGGQIAVFDATNTTRERRHMILHFAKENDFKAFFIESVCDDPTVVASNIMEVKISSPDYKDCNSAEAMDDFMKRISCYEASYQPLDPDKCDRDLSLIKVIDVGRRFLVNRVQDHIQSRIVYYLMNIHVQPRTIYLCRHGENEHNLQGRIGGDSGLSSRGKKFASALSKFVEEQNLKDLRVWTSQLKSTIQTAEALRLPYEQWKALNEIDAGVCEELTYEEIRDTYPEEYALREQDKYYYRYPTGESYQDLVQRLEPVIMELERQENVLVICHQAVLRCLLAYFLDKSAEEMPYLKCPLHTVLKLTPVAYGCRVESIYLNVESVCTHRERSEDAKKGPNPLMRRNSVTPLASPEPTKKPRINSFEEHVASTSAALPSCLPPEVPTQLPGQNMKGSRSSADSSRKH [PFKFB3]” the “solubility change mitosis (log2)” value (HeLa Kyoto [1]) was -0.103, the thermal stability score (HeLa Kyoto [2]; [4]) was 2.73 and the thermal stability score (HeLa Kyoto [2]; cell cycle stage: mitosis) was 0.713. The “solubility in G1/S (log2)” value (HeLa Kyoto [3]) was 0.239.
In the case of “MASPRASRWPPPLLLLLLPLLLLPPAAPGTRDPPPSPARRALSLAPLAGAGLELQLERRPEREPPPTPPRERRGPATPGPSYRAPEPGAATQRGPSGRAPRGGSADAAWKHWPESNTEAHVENITFYQNQEDFSTVSSKEGVMVQTSGKSHAASDAPENLTLLAETADARGRSGSSSRTNFTILPVGYSLEIATALTSQSGNLASESLHLPSSSSEFDERIAAFQTKSGTASEMGTERAMGLSEEWTVHSQEATTSAWSPSFLPALEMGELTTPSRKRNSSGPDLSWLHFYRTAASSPLLDLSSSSESTEKLNNSTGLQSSSVSQTKTMHVATVFTDGGPRTLRSLTVSLGPVSKTEGFPKDSRIATTSSSVLLSPSAVESRRNSRVTGNPGDEEFIEPSTENEFGLTSLRWQNDSPTFGEHQLASSSEVQNGSPMSQTETVSRSVAPMRGGEITAHWLLTNSTTSADVTGSSASYPEGVNASVLTQFSDSTVQSGGSHTALGDRSYSESSSTSSSESLNSSAPRGERSIAGISYGQVRGTAIEQRTSSDHTDHTYLSSTFTKGERALLSITDNSSSSDIVESSTSYIKISNSSHSEYSSFFHAQTERSNISSYDGEYAQPSTESPVLHTSNLPSYTPTINMPNTSVVLDTDAEFVSDSSSSSSSSSSSSSSGPPLPLPSVSQSHHLFSSILPSTRASVHLLKSTSDASTPWSSSPSPLPVSLTTSTSAPLSVSQTTLPQSSSTPVLPRARETPVTSFQTSTMTSFMTMLHSSQTADLKSQSTPHQEKVITESKSPSLVSLPTESTKAVTTNSPLPPSLTESSTEQTLPATSTNLAQMSPTFTTTILKTSQPLMTTPGTLSSTASLVTGPIAVQTTAGKQLSLTHPEILVPQISTEGGISTERNRVIVDATTGLIPLTSVPTSAKEMTTKLGVTAEYSPASRSLGTSPSPQTTVVSTAEDLAPKSATFAVQSSTQSPTTVSSSASVNSCAVNPCLHNGECVADNTSRGYHCRCPPSWQGDDCSVDVNECLSNPCPSTAMCNNTQGSFICKCPVGYQLEKGICNLVRTFVTEFKLKRTFLNTTVEKHSDLQEVENEITKTLNMCFSALPSYIRSTVHASRESNAVVISLQTTFSLASNVTLFDLADRMQKCVNSCKSSAEVCQLLGSQRRIFRAGSLCKRKSPECDKDTSICTDLDGVALCQCKSGYFQFNKMDHSCRACEDGYRLENETCMSCPFGLGGLNCGNPYQLITVVIAAAGGGLLLILGIALIVTCCRKNKNDISKLIFKSGDFQMSPYAEYPKNPRSQEWGREAIEMHENGSTKNLLQMTDVYYSPTSVRNPELERNGLYPAYTGLPGSRHSCIFPGQYNPSFISDESRRRDYF [HEG1]”, the “solubility change mitosis (log2)” value (HeLa Kyoto [1]) was -0.0254, the thermal stability score (HeLa Kyoto [2]; [4]) was -0.763 and the thermal stability score (HeLa Kyoto [2]; cell cycle stage: mitosis) was -1.15. The “solubility in G1/S (log2)” value (HeLa Kyoto [3]) was -0.231.
With CELSR1 the “solubility change mitosis (log2)” value (HeLa Kyoto [1]) was -0.0398, the thermal stability score (HeLa Kyoto [2]; [4]) was -1.99 and the thermal stability score (HeLa Kyoto [2]; cell cycle stage: mitosis) was -1.59. For the same substance, the “solubility in G1/S (log2)” value (HeLa Kyoto [3]) was -0.413.
“MFSVLSYGRLVARAVLGGLSQTDPRAGGGGGGDYGLVTAGCGFGKDFRKGLLKKGACYGDDACFVARHRSADVLGVADGVGGWRDYGVDPSQFSGTLMRTCERLVKEGRFVPSNPIGILTTSYCELLQNKVPLLGSSTACIVVLDRTSHRLHTANLGDSGFLVVRGGEVVHRSDEQQHYFNTPFQLSIAPPEAEGVVLSDSPDAADSTSFDVQLGDIILTATDGLFDNMPDYMILQELKKLKNSNYESIQQTARSIAEQAHELAYDPNYMSPFAQFACDNGLNVRGGKPDDITVLLSIVAEYTD [PPTC7]” was tested, and the “solubility change mitosis (log2)” value (HeLa Kyoto [1]) was -0.0876, the thermal stability score (HeLa Kyoto [2]; [4]) was -1.55 and the thermal stability score (HeLa Kyoto [2]; cell cycle stage: mitosis) was -0.178. The “solubility in G1/S (log2)” value (HeLa Kyoto [3]) was -0.0546.
In the case of “MQTSEREGSGPELSPSVMPEAPLESPPFPTKSPAFDLFNLVLSYKRLEIYLEPLKDAGDGVRYLLRWQMPLCSLLTCLGLNVLFLTLNEGAWYSVGALMISVPALLGYLQEVCRARLPDSELMRRKYHSVRQEDLQRGRLSRPEAVAEVKSFLIQLEAFLSRLCCTCEAAYRVLHWENPVVSSQFYGALLGTVCMLYLLPLCWVLTLLNSTLFLGNVEFFRVVSEYRASLQQRMNPKQEEHAFESPPPPDVGGKDGLMDSTPALTPTEDLTPGSVEEAEEAEPDEEFKDAIEETHLVVLEDDEGAPCPAEDELALQDNGFLSKNEVLRSKVSRLTERLRKRYPTNNFGNCTGCSATFSVLKKRRSCSNCGNSFCSRCCSFKVPKSSMGATAPEAQRETVFVCASCNQTLSK [ZFYVE27]”, the “solubility change mitosis (log2)” value (HeLa Kyoto [1]) was -0.198, the thermal stability score (HeLa Kyoto [2]; [4]) was 0.202 and the thermal stability score (HeLa Kyoto [2]; cell cycle stage: mitosis) was -1.24. The “solubility in G1/S (log2)” value (HeLa Kyoto [3]) was -0.196.
For “MAKQLQARRLDGIDYNPWVEFVKLASEHDVVNLGQGFPDFPPPDFAVEAFQHAVSGDFMLNQYTKTFGYPPLTKILASFFGELLGQEIDPLRNVLVTVGGYGALFTAFQALVDEGDEVIIIEPFFDCYEPMTMMAGGRPVFVSLKPGPIQNGELGSSSNWQLDPMELAGKFTSRTKALVLNTPNNPLGKVFSREELELVASLCQQHDVVCITDEVYQWMVYDGHQHISIASLPGMWERTLTIGSAGKTFSATGWKVGWVLGPDHIMKHLRTVHQNSVFHCPTQSQAAVAESFEREQLLFRQPSSYFVQFPQAMQRCRDHMIRSLQSVGLKPIIPQGSYFLITDISDFKRKMPDLPGAVDEPYDRRFVKWMIKNKGLVAIPVSIFYSVPHQKHFDHYIRFCFVKDEATLQAMDEKLRKWKVEL [CCBL1]”, the “solubility change mitosis (log2)” value (HeLa Kyoto [1]) was -0.211, the thermal stability score (HeLa Kyoto [2]; [4]) was 0.0443 and the thermal stability score (HeLa Kyoto [2]; cell cycle stage: mitosis) was -0.361. For the same substance, the “solubility in G1/S (log2)” value (HeLa Kyoto [3]) was 0.0856.
